Residue numbers refer to the chain shown, from its start.
Assays:
[1] = target: T1, human ASGPR H1 on ASGPR-positive hepatic cells (HepG2, primary human hepatocytes, Huh-7) (human, UniProt P07306 1-291); assay: FACS on HepG2 cells, human IgG1 at 30 µg/ml, 30 min at 4°C, FITC anti-human IgG Fc secondary F(ab')2
T1 construct: whole, on cells; Endogenous receptor on cells; the antibodies were selected on H1; also called surface-exposed ASGPR
T1 sequence (looked up): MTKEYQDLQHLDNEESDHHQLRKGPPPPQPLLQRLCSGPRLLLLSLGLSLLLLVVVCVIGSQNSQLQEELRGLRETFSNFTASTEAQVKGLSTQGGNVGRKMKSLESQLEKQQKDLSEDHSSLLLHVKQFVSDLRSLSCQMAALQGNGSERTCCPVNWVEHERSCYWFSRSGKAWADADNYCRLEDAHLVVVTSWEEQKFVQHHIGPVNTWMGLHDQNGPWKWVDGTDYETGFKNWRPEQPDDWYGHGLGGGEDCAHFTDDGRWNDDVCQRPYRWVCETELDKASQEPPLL

[2] = target: T2, avi-Fc-human ASGPR H1 CRD (human, UniProt P0DOX5 223-449 = IgG part, biotinylated at the N-terminal Avi tag); assay: SPR (ProteOn XPR36), antigen captured by neutravidin, antibody construct as analyte
T2 construct: also called Fc-CRD; hu/cyASGPR H1 CRD

[3] = target: T1, human ASGPR H1 on ASGPR-positive …; assay: FACS on HepG2 cells, antibody 1.25, 6 and 30 µg/ml without or with Alexa488 asialofetuin (100 µg/ml), APC anti-human IgG Fc detection
[4] = target: T1, human ASGPR H1 on ASGPR-positive …; assay: FACS on HepG2 cells, human IgG1 in a dilution row up to 20 µg/ml, 30 min at 4°C, FITC anti-human IgG Fc secondary
[5] = target: T1, human ASGPR H1 on ASGPR-positive …; assay: FACS on HepG2 cells, FITC-labeled IgG 30 µg/ml bound at 4°C, washed, then 37°C for up to 120 min; PE anti-Fc detection of surface antibody
[6] = target: T1, human ASGPR H1 on ASGPR-positive …; assay: FACS on HepG2 cells, human IgG1 at 0.01 to 10 µg/ml
[7] = target: T3, avi-Fc-human ASGPR H1 stalk (human, biotinylated at the N-terminal Avi tag); assay: SPR (ProteOn XPR36), antigen captured by neutravidin, Fab as analyte;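 note: antigen surface loaded to 200, 400 or 800 RU in PBST pH 7.4, sensorgrams referenced against a buffer-only in-line channel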
T3 construct: Homodimeric Fc fusion (wild type Fc); also called huASGPR H1 stalk; Fc-stalk

[8] = target: T4, avi-Fc-human CLEC10A stalk CRD (human, biotinylated at the N-terminal Avi tag); assay: as above
T4 construct: Homodimeric Fc fusion of the human CLEC10A ECD, closest homologue of ASGPR H1, used as specificity control; also called huCLEC10A stalk CRD

[9] = target: T5, avi-Fc-cynomolgus ASGPR H1 stalk (cynomolgus, biotinylated at the N-terminal Avi tag); assay: as above
T5 construct: Homodimeric Fc fusion (wild type Fc); also called cyASGPR H1 stalk

[10] = target: T6, avi-Fc-human ASGPR H1 stalk CRD (human, biotinylated at the N-terminal Avi tag); assay: as above
T6 construct: Homodimeric (bivalent) Fc fusion of the human ASGPR H1 ECD (stalk and CRD); also called huASGPR H1 stalk CRD; Fc-stalk-CRD

T3 sequence (chain, as listed by the source limits assumed): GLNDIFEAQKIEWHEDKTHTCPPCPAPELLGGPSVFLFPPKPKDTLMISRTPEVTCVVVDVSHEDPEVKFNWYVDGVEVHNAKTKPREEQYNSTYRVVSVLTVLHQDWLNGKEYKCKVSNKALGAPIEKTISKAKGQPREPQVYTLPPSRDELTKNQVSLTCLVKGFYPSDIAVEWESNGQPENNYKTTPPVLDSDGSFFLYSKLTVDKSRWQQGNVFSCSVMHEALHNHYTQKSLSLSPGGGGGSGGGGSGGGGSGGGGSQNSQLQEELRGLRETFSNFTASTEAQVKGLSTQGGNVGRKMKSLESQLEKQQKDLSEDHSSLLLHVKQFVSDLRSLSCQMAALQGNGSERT
T5 sequence (chain, as listed by the source limits assumed): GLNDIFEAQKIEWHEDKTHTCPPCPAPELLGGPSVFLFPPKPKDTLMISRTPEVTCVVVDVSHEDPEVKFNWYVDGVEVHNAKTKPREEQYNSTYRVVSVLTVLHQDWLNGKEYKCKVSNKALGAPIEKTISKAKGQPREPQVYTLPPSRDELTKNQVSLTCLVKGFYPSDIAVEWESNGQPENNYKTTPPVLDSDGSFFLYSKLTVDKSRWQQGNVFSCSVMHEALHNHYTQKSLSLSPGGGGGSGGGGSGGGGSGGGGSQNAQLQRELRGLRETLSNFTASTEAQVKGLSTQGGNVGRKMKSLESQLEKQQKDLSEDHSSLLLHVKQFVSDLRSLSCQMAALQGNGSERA
T4 sequence (chain, as listed by the source limits assumed): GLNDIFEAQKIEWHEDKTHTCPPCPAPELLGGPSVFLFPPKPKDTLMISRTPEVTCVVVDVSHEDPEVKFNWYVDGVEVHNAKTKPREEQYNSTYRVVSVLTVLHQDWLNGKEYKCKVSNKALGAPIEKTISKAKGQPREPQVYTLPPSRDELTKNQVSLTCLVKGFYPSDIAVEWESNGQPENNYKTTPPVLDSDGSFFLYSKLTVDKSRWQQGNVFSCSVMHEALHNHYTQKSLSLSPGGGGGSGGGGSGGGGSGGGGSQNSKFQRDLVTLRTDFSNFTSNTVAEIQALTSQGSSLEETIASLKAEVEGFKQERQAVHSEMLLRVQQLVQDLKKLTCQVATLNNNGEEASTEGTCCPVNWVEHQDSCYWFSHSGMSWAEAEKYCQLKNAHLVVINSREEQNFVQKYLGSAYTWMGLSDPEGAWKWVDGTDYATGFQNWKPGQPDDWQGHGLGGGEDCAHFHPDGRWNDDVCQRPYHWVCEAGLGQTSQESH

B1: ASGPR 5A4 (antibody, V domains shown)
VH: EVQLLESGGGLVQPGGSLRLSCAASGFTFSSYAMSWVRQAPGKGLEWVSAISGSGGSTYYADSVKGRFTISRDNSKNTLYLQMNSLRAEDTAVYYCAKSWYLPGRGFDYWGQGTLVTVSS
VL: SSELTQDPAVSVALGQTVRITCQGDSLRSYYASWYQQKPGQAPVLVIYGKNNRPSGIPDRFSGSSSGNTASLTITGAQAEDEADYYCNSRLRSGKMVVFGGGTKLTVL
notes: the list has only its Fab and its IgG-IFNα conjugate; also called 5A4 IgG; 5A4 human IgG1 antibody
[1]
  binding result: binds

B2: 52C4 IgG (antibody, V domains shown)
VH: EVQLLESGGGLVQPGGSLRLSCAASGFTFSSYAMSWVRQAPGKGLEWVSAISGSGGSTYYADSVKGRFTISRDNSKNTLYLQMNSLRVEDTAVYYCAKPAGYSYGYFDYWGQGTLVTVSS
VL: B1 VL with R90G, L91A, R92S, K95N, M96Q, V97L
notes: also called 52C4 human IgG1 antibody
[2]
  Kd: 0.89 nM
  koff: 0.000499 s⁻¹
  kon: 557000 M⁻¹ s⁻¹
[3]
  binding result: binds

B3: 51A12_A6 human IgG1 antibody (antibody, V domains shown)
VH: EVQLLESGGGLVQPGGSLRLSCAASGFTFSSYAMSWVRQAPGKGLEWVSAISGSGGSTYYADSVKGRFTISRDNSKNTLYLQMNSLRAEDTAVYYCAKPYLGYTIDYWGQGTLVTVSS
VL: SSELTQDPAVSVALGQTVRITCQGDSLRSYYASWYQQKPGQAPVLVIYGKNNRPSGIPDRFSGSSSGNTASLTITGAQAEDEADYYCNSRTYSYNRAVRNFGGGTKLTVL
notes: also called 51A12_A6 IgG1-converted antibody
[4]
  binding result: binds

B4: 51A12_C1 human IgG1 antibody (antibody, V domains shown)
VH: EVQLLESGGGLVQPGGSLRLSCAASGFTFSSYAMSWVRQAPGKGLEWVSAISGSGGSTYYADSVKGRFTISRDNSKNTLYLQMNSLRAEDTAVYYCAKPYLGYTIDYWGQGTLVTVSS
VL: B3 VL with T91S, S93A, Y94F, A97V
notes: also called 51A12_C1 IgG1-converted antibody
[5]
  binding result: binds

B5: 51A12_C7 human IgG1 antibody (antibody, V domains shown)
VH: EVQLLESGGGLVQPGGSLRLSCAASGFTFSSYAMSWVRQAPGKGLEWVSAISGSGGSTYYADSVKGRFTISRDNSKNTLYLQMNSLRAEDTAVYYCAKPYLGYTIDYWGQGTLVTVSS
VL: B3 VL with T91D, Y92I, S93R, A97V, N100P
notes: also called 51A12_C7 IgG1-converted antibody
[5]
  binding result: binds

B6: 51A12_D1 human IgG1 antibody (antibody, V domains shown)
VH: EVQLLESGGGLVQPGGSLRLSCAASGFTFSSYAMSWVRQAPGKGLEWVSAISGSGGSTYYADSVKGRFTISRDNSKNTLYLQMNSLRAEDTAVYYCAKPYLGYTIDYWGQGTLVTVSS
VL: B3 VL with N100P
notes: also called 51A12_D1 IgG1-converted antibody
[6]
  binding result: binds

B7: 51A12_H3 human IgG1 antibody (antibody, V domains shown)
VH: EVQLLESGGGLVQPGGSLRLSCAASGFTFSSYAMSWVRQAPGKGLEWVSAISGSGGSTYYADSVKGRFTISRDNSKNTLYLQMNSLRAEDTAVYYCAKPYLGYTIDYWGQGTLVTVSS
VL: B3 VL with T91D, S93K, Y94F, A97V
notes: also called 51A12_H3 IgG1-converted antibody
[4]
  binding result: binds

B8: 51A12_H6 human IgG1 antibody (antibody, V domains shown)
VH: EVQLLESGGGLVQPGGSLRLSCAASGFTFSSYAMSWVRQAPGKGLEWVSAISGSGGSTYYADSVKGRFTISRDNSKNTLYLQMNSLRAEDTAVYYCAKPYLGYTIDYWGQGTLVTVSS
VL: B3 VL with T91D, S93K, Y94W, A97V, N100H
notes: also called 51A12_H6 IgG1-converted antibody
[4]
  binding result: binds

B9: 51A12_E7 human IgG1 antibody (antibody, V domains shown)
VH: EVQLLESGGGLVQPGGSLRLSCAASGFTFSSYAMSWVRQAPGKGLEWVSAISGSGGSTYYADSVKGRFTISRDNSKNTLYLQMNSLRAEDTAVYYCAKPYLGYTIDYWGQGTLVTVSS
VL: B3 VL with T91D, S93R, N100P
notes: also called 51A12_E7 IgG1-converted antibody
[5]
  binding result: binds

B10: 5A4 Fab (Fab, V domains shown)
VH: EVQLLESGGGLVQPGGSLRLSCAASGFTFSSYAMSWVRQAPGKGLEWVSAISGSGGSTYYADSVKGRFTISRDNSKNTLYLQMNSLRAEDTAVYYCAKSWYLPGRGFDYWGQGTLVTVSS
VL: B1 VL
notes: Human lambda Fab from E. coli
[7]
  Kd: 4.3 nM
  koff: 0.00105 s⁻¹
  kon: 244000 M⁻¹ s⁻¹
[8]
  binding result: no binding
[9]
  Kd: 3.76 nM
  koff: 0.0014 s⁻¹
  kon: 372000 M⁻¹ s⁻¹
[10]
  binding result: no binding
